Laboratory results from US20120021092A1.

What was measured:
Experiment in all cases: cell-based or functional assay
[1] = molecular target: Bacillus subtilis xylanase variant G13Y/K99Y/T104W/T110A/Y113D/N114D/R122F/K154R/N159D/Q175L (modifications made to SEQ ID No. 1) (Bacillus subtilis) (UniProt P18429)
[2] = molecular target: Bacillus subtilis xylanase variant G13Y/K99Y/T104W/T110A/Y113D/I118V/R122F/K154R/N159D/Q175L (modifications made to SEQ ID No. 1) (Bacillus subtilis) (UniProt P18429)
[3] = molecular target: Bacillus subtilis xylanase variant G13Y/K99Y/T104W/T110A/Y113D/N114F/R122F/K154R/N159D/Q175L (modifications made to SEQ ID No. 1) (Bacillus subtilis) (UniProt P18429)
[4] = molecular target: Bacillus subtilis xylanase variant G13Y/I77V/K99Y/T104W/T110A/Y113D/R122F/K154R/N159D/Q175L (modifications made to SEQ ID No. 1) (Bacillus subtilis) (UniProt P18429)
[5] = molecular target: Bacillus subtilis xylanase variant G13Y/K99Y/T104W/T110A/Y113D/R122F/K154R/N159D/Q175L (modifications made to SEQ ID No. 1) (Bacillus subtilis) (UniProt P18429)
[6] = molecular target: Bacillus subtilis xylanase variant G13Y/G34K/T110A/Y113D/R122D/Q175L (modifications made to SEQ ID No. 1) (Bacillus subtilis) (UniProt P18429)
[7] = molecular target: Bacillus subtilis xylanase variant D11F/R122D/Q175E (modifications made to SEQ ID No. 1) (Bacillus subtilis) (UniProt P18429)
[8] = molecular target: Bacillus subtilis xylanase variant G13Y/T110A/Y113D/R122D/S162D/Q175L (modifications made to SEQ ID No. 1) (Bacillus subtilis) (UniProt P18429)
[9] = molecular target: Bacillus subtilis xylanase variant G13Y/K99Y/T104W/T110A/Y113D/N114D/R122F/K154R/N159D/L175K (modifications made to SEQ ID No. 1) (Bacillus subtilis) (UniProt P18429)
[10] = molecular target: Bacillus subtilis xylanase variant D11F/R122D/Y113A (modifications made to SEQ ID No. 1) (Bacillus subtilis) (UniProt P18429)
[11] = molecular target: Bacillus subtilis xylanase variant G13Y/T110A/Y113D/R122D/K154R/N159D/Q175L (modifications made to SEQ ID No. 1) (Bacillus subtilis) (UniProt P18429)
[12] = molecular target: Bacillus subtilis xylanase variant G13Y/I77Y/K99Y/T104W/T110A/Y113D/R122F/K154R/N159D/Q175L (modifications made to SEQ ID No. 1) (Bacillus subtilis) (UniProt P18429)
[13] = molecular target: Bacillus subtilis xylanase variant D11F/R122D/Q175Y/S179Y (modifications made to SEQ ID No. 1) (Bacillus subtilis) (UniProt P18429)
[14] = molecular target: Bacillus subtilis xylanase variant G13Y/K99Y/T104W/T110A/Y113D/R122F/K154R/N159D/Q175K (modifications made to SEQ ID No. 1) (Bacillus subtilis) (UniProt P18429)
[15] = molecular target: Bacillus subtilis xylanase variant D11F/R122D/T110A (modifications made to SEQ ID No. 1) (Bacillus subtilis) (UniProt P18429)
[16] = molecular target: Bacillus subtilis xylanase variant G13Y/T110A/Y113D/R122D/S162E/Q175L (modifications made to SEQ ID No. 1) (Bacillus subtilis) (UniProt P18429)
[17] = molecular target: Bacillus subtilis xylanase variant G13Y/T110A/Y113D/R122D/Q175L (modifications made to SEQ ID No. 1) (Bacillus subtilis) (UniProt P18429)
[18] = molecular target: Bacillus subtilis xylanase variant G13Y/I77S/K99Y/T104W/T110A/Y113D/R122F/K154R/N159D/Q175L (modifications made to SEQ ID No. 1) (Bacillus subtilis) (UniProt P18429)
[19] = molecular target: Bacillus subtilis xylanase variant G13Y/I15Y/Y113D/R122D/Q175L (modifications made to SEQ ID No. 1) (Bacillus subtilis) (UniProt P18429)
[20] = molecular target: Bacillus subtilis xylanase variant G13Y/V81I/K99Y/T104W/T110A/Y113D/R122F/K154R/N159D/Q175L (modifications made to SEQ ID No. 1) (Bacillus subtilis) (UniProt P18429)
[21] = molecular target: Bacillus subtilis xylanase variant G13Y/K99Y/T104W/Y113D/R122D/Q175L (modifications made to SEQ ID No. 1) (Bacillus subtilis) (UniProt P18429)
[22] = molecular target: Bacillus subtilis xylanase variant G12F/Y113D/R122D/Q175L (modifications made to SEQ ID No. 1) (Bacillus subtilis) (UniProt P18429)
[23] = molecular target: Bacillus subtilis xylanase variant D11F/R122D/T110A/Y113A (modifications made to SEQ ID No. 1) (Bacillus subtilis) (UniProt P18429)
[24] = molecular target: Bacillus subtilis xylanase variant G13Y/Y113D/R122F/Q175L (modifications made to SEQ ID No. 1) (Bacillus subtilis) (UniProt P18429)
[25] = molecular target: Bacillus subtilis xylanase variant G13Y/T110A/Y113D/R122D/W164F/Q175L (modifications made to SEQ ID No. 1) (Bacillus subtilis) (UniProt P18429)
[26] = molecular target: Bacillus subtilis xylanase variant G13Y/I77M/K99Y/T104W/T110A/Y113D/R122F/K154R/N159D/Q175L (modifications made to SEQ ID No. 1) (Bacillus subtilis) (UniProt P18429)
[27] = molecular target: Bacillus subtilis xylanase variant G13F/Y113D/R122D/Q175L (modifications made to SEQ ID No. 1) (Bacillus subtilis) (UniProt P18429)
[28] = molecular target: Bacillus subtilis xylanase variant G13Y/K99Y/T104W/T110A/Y113D/N114Y/R122F/K154R/N159D/Q175L (modifications made to SEQ ID No. 1) (Bacillus subtilis) (UniProt P18429)
[29] = molecular target: Bacillus subtilis xylanase variant G13Y/K99Y/T104W/T110A/Y113D/N114Y/R122F/K154R/N159D/L175K (modifications made to SEQ ID No. 1) (Bacillus subtilis) (UniProt P18429)
[30] = molecular target: Bacillus subtilis xylanase variant G13Y/I77L/K99Y/T104W/T110A/Y113D/R122F/K154R/N159D/Q175L (modifications made to SEQ ID No. 1) (Bacillus subtilis) (UniProt P18429)
[31] = molecular target: Bacillus subtilis xylanase variant G13Y/Y113D/R122D/Q175L (modifications made to SEQ ID No. 1) (Bacillus subtilis) (UniProt P18429)
[32] = molecular target: Bacillus subtilis XynA wildtype xylanase (SEQ ID No. 1), no modifications (Bacillus subtilis) (UniProt P18429)
[33] = molecular target: Bacillus subtilis xylanase variant G13Y/K99Y/T104W/T110A/Y113D/R122F/K154R/N159D/Y166F/Q175L (modifications made to SEQ ID No. 1) (Bacillus subtilis) (UniProt P18429)
[34] = molecular target: Bacillus subtilis xylanase variant BS3 (wildtype with D11F/R122D mutations) (Bacillus subtilis) (UniProt P18429)
[35] = molecular target: Bacillus subtilis xylanase variant G13Y/T110A/Y113D/R122F/Q175L (modifications made to SEQ ID No. 1) (Bacillus subtilis) (UniProt P18429)

crude xylanase inhibitor preparation from wheat (Triticum aestivum) flour, containing both TAXI and XIP, sequence (main, form in doubt): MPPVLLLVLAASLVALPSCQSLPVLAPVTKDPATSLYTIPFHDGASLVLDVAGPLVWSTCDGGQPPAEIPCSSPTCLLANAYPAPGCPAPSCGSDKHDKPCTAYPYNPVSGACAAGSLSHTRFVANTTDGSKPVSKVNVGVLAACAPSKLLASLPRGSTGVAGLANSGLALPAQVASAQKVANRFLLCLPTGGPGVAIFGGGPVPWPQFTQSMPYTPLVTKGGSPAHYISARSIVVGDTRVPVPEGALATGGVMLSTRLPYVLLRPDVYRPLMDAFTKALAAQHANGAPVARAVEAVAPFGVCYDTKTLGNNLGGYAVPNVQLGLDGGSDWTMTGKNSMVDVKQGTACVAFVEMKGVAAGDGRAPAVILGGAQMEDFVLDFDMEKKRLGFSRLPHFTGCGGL

% Activity @ 50 XIU/ml (residual xylanase activity) [1]: 79%
% Activity @ 50 XIU/ml (residual xylanase activity) [2]: 79%
% Activity @ 50 XIU/ml (residual xylanase activity) [3]: 79%
% Activity @ 50 XIU/ml (residual xylanase activity) [4]: 45%
% Activity @ 50 XIU/ml (residual xylanase activity) [5]: 64%
% Activity @ 50 XIU/ml (residual xylanase activity) [6]: 97%
% Activity @ 5.6 XIU/ml (residual xylanase activity) [7]: 100%
% Activity @ 50 XIU/ml (residual xylanase activity) [8]: 40%
% Activity @ 50 XIU/ml (residual xylanase activity) [9]: 79%
% Activity @ 5.6 XIU/ml (residual xylanase activity) [10]: 100%
% Activity @ 50 XIU/ml (residual xylanase activity) [11]: 32%
% Activity @ 50 XIU/ml (residual xylanase activity) [12]: 37%
% Activity @ 5.6 XIU/ml (residual xylanase activity) [13]: 100%
% Activity @ 50 XIU/ml (residual xylanase activity) [14]: 72%
% Activity @ 5.6 XIU/ml (residual xylanase activity) [15]: 98%
% Activity @ 33.5 XIU/ml (residual xylanase activity) [15]: 100%
% Activity @ 50 XIU/ml (residual xylanase activity) [16]: 44%
% Activity @ 33.5 XIU/ml (residual xylanase activity) [17]: 50%
% Activity @ 50 XIU/ml (residual xylanase activity) [18]: 20%
% Activity @ 33.5 XIU/ml (residual xylanase activity) [19]: 76%
% Activity @ 50 XIU/ml (residual xylanase activity) [20]: 46%
% Activity @ 33.5 XIU/ml (residual xylanase activity) [21]: 80%
% Activity @ 5.6 XIU/ml (residual xylanase activity) [22]: 100%
% Activity @ 5.6 XIU/ml (residual xylanase activity) [23]: 99%
% Activity @ 50 XIU/ml (residual xylanase activity) [24]: 90%
% Activity @ 50 XIU/ml (residual xylanase activity) [25]: 29%
% Activity @ 50 XIU/ml (residual xylanase activity) [26]: 46%
% Activity @ 5.6 XIU/ml (residual xylanase activity) [27]: 100%
% Activity @ 33.5 XIU/ml (residual xylanase activity) [27]: 90%
% Activity @ 50 XIU/ml (residual xylanase activity) [28]: 78%
% Activity @ 50 XIU/ml (residual xylanase activity) [29]: 84%
% Activity @ 50 XIU/ml (residual xylanase activity) [30]: 75%
% Activity @ 33.5 XIU/ml (residual xylanase activity) [31]: 86%
% Activity @ 5.6 XIU/ml (residual xylanase activity) [32]: 29%
% Activity @ 50 XIU/ml (residual xylanase activity) [33]: 68%
% Activity @ 5.6 XIU/ml (residual xylanase activity) [34]: 100%
% Activity @ 33.5 XIU/ml (residual xylanase activity) [34]: 100%
% Activity @ 50 XIU/ml (residual xylanase activity) [34]: 95%
% Activity @ 50 XIU/ml (residual xylanase activity) [35]: 65%
Substance: crude xylanase inhibitor preparation from wheat (Triticum aestivum) flour, containing both TAXI and XIP
